Reference: US20210115152A1 (ARBELE, published 2021)

Experiments:
CD3 on Jurkat T cells = CD3 on Jurkat T cells (UniProt P07766 23-207); assay: cell-based or functional assay
[1] = target: T1, CDH17 on tumor cells (DLD-1, AGS, AsPC1, CDH17-positive pancreatic and colon lines, SW40 with ectopic CDH17) (UniProt Q12864 23-832, limits assumed); assay: cell-based or functional assay
T1 sequence (looked up): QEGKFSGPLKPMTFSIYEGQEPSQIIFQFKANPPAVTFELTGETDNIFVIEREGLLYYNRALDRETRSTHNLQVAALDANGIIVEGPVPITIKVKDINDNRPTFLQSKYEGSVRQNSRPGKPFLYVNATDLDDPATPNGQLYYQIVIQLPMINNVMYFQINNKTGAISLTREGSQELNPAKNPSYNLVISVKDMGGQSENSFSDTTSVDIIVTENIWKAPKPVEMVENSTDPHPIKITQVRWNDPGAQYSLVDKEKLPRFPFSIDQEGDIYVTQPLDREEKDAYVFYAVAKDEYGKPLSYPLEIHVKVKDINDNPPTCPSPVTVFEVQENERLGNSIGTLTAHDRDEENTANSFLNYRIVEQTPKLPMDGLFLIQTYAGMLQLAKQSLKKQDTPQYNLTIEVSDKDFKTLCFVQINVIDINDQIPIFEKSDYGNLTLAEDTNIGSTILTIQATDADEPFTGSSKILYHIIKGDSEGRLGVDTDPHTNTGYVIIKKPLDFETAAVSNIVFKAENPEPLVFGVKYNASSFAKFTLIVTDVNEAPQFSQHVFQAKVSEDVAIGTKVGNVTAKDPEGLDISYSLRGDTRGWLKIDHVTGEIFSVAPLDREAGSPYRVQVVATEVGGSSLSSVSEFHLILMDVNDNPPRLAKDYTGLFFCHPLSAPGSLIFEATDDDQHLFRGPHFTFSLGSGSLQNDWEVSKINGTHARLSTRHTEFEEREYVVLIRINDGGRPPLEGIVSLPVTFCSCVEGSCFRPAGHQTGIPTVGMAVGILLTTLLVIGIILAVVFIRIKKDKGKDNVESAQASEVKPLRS

Sequence of CD3 on Jurkat T cells (P07766 23-207): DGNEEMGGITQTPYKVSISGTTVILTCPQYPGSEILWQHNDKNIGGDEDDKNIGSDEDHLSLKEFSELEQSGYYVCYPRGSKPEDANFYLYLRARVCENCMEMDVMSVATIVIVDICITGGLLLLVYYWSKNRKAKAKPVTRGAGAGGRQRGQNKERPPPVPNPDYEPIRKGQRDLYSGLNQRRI

B1: h10G4fL (h10G4U1fL; ARB202), CDH17xCD3 bispecific antibody of the IgG-scFv / fL design, IgG4 (bispecific antibody)
heavy: EVQLVESGGGLVQPGGSLRLSCAASGFTFSSYAMSWVRQTPGKGLEWVAVIDSNGGSTYYPDTVKDRFTISRDNSKNTLYLQMNSLRAEDTAVYYCSSYTNLGAYWGQGTLVTVSSASTKGPSVFPLAPSSKSTSGGTAALGCLVKDYFPEPVTVSWNSGALTSGVHTFPAVLQSSGLYSLSSVVTVPSSSLGTQTYICNVNHKPSNTKVDKRVEPKSCDKTHTCPPCPAPELLGGPSVFLFPPKPKDTLMISRTPEVTCVVVDVSQEDPEVQFNWYVDGVEVHNAKTKPREEQFNSTYRVVSVLTVLHQDWLNGKEYKCKVSNKGLPSSIEKTISKAKGQPREPQVYTLPPSQEEMTKNQVSLTCLVKGFYPSDIAVEWESNGQPENNYKTTPPVLDSDGSFFLYSRLTVDKSRWQEGNVFSCSVMHEALHNHYTQKSLSLSLGKPAGGGGSEVQLVESGGGLVQPGGSLRLSCAASGYSFTGYTMNWVRQAPGKGLEWVALINPYKGVSTYNQKFKDRFTISVDKSKNTAYLQMNSLRAEDTAVYYCARSGYYGDSDWYFDVWGQGTLVTVSSGGGGSGGGGSGGGGSDIQMTQSPSSLSASVGDRVTITCRASQDIRNYLNWYQQKPGKAPKLLIYYTSRLESGVPSRFSGSGSGTDYTLTISSLQPEDFATYYCQQGNTLPWTFGQGTKVEIK
light: DIQMTQSPSSLSASVGDRVTITCRASQDISGYLNWLQQKPGGAIKRLIYTTSTLDSGVPKRFSGSGSGTDFTLTISSLQSEDFATYYCLQYASSPFTFGGGTKVEIKRTVAAPSVFIFPPSDEQLKSGTASVVCLLNNFYPREAKVQWKVDNALQSGNSQESVTEQDSKDSTYSLSSTLTLSKADYEKHKVYACEVTHQGLSSPVTKSFNRGEC
EC50 of IL2 production by PBMC in the absence of AsPC1 tumor cells (CD3 on Jurkat T cells): ≥ 18.7 nM | EC50 of IL2 production by PBMC in the presence of AsPC1 tumor cells (5:1, 16 hours) [1]: 0.03 nM
